From article PMC5597967, “14-3-3 Regulates Actin Filament Formation in the Deep-Branching Eukaryote Giardia lamblia” (mSphere, 2017)

Target: the molecule itself
Experiment: native gel or EMSA; TS-actin and associated proteins purified on StrepTactin resin, eluted with 2 mM biotin, run at once on 4 to 16% native PAGE and blotted; with and without DSP cross-linking of cells before lysis; input also run

B1: Gl-14-3-3–HA (endogenously 3×HA C-terminally tagged Gl-14-3-3) (natural protein, Giardia lamblia, UniProt E2RU97 1-248, looked up)
chain: MAEAFTREDYVFMAQLNENAERYDEMVETMRKISGMEGELSDKERNLLSVAYKNVIGPRRAAWRIVSSIEAKEKGRQKPNAKRIEQIRVYRQKIEKELSDICNDILKLLQEQFVPRSTNADAKVFYYKMQGDYYRYLAEYSSGEDKEKIAGSALNAYNSAFEISQQLPPTHPIRLGLALNFSVFYYEILASPDRACELARKAFDAAITDLDKLTEESYKDSTLIMQLLRDNLNLWVTDSAGDDNAEEK
notes: Giardia lamblia 14-3-3 (Gl-14-3-3), the single 14-3-3 homolog, GL50803_6430; source: Giardia trophozoites, endogenously tagged (integrated copy), in lysate; not shown: 3xHA, C-terminal, kept
stoichiometry N: 2
